Consider 167 variants from the RNAGym collection of RNA variant scans (doi:10.7554/elife.80360).

To fix the notation:
B1: Hammerhead Ribozyme (parent)
chain: ACCGGAUGUGCUUUCCGGUCUGAUGAGUCCGUGAGGACGAAACAG

In this series the parent is B1. Nature of the series: self-cleavage, relative activity (ratio to wild type); higher = more cleavage; co-transcriptional.
As to U7A A44G, the self-cleavage worked out at 1.46.

With U7A G25U, the self-cleavage came out at 0.281. For U7A G25A, the self-cleavage stood at 0.32. Take U7A G25C: the self-cleavage was 0.279. To U7G A26G belongs 0.289; to U7G A26U, 0.717; to U7G A26C, 0.265. To U7C G10U belongs 1.12; to U7C G10A, 1.02. Then U7C G10C, with 0.781; and A6U G45C, with 0.39. For the variant A6U G45U, the self-cleavage stood at 0.468. As to A6U G45A, the self-cleavage came to 0.536.

Regarding U7A A42C, the self-cleavage turned out to be 0.358. To U7A A42G belongs 0.216. For U7A A42U, the self-cleavage was determined as 0.257.

Regarding U7C C16A, the self-cleavage was found to be 0.738. On to U7C C16G, for which the self-cleavage turned out to be 0.487. Turning to U7C C16U, the self-cleavage was found to be 1.06. Turning to A6U C30U, the self-cleavage worked out at 0.743. With U7C G25C, the self-cleavage turned out to be 0.319. Turning to U7C G25A, the self-cleavage was 0.402. Regarding U7C G25U, the self-cleavage is 0.312. On to A6U G39C, for which the self-cleavage was determined as 0.294. Regarding A6U G39U, the self-cleavage is 0.364.

A6U G39A: the self-cleavage was 0.281.

In the case of A6U G18A, the self-cleavage was 0.34. Then A6U G18C, with 0.395.

On to A6U G18U, for which the self-cleavage was 0.344. In the case of U7A G10U, the self-cleavage worked out at 1.44. To U7A G10A belongs 1.33.

In the case of U7A G10C, the self-cleavage turned out to be 1.34.

For the variant U7C, the self-cleavage was found to be 1.05.

Consider U7A, for which the self-cleavage amounted to 1.28. Then U7G, with 1.37; and A6U U14A, with 1.06. As to A6U U14C, the self-cleavage was determined as 1.07. As to A6U U14G, the self-cleavage came to 0.624. To U7C C38U belongs 0.929; to U7C C38A, 0.702; to U7C C38G, 0.533. As to U7C A37U, the self-cleavage was found to be 0.621.

Consider U7C A37G, for which the self-cleavage was found to be 0.771. U7C A37C: the self-cleavage is 0.828. Turning to U7C U14A, the self-cleavage turned out to be 1.26. To U7C U14C belongs 0.585; to U7C U14G, 0.975; to U7A U24C, 0.976. For U7A U24A, the self-cleavage came to 1.26. For the variant U7A U24G, the self-cleavage stood at 0.882. For U7C U19G, the self-cleavage worked out at 0.413.

For U7C U19A, the self-cleavage amounted to 0.397. On to U7C U19C, for which the self-cleavage came out at 0.526. Turning to A6U G31A, the self-cleavage was 0.748.

For A6U G31U, the self-cleavage is 0.889. On to A6U G31C, for which the self-cleavage stood at 0.704. For U7C U28A, the self-cleavage was 0.504. U7C U28C: the self-cleavage amounted to 0.792. To U7C U28G belongs 0.538; to U7A U12G, 1.33; to U7A U12A, 1.55. Consider U7A U12C, for which the self-cleavage stood at 0.79. U7C C11G: the self-cleavage worked out at 1.37.

As for U7C C11U, the self-cleavage was found to be 0.433. In the case of U7C C11A, the self-cleavage was determined as 1.37.

On to U7C A41U, for which the self-cleavage stood at 0.336. As for U7C A41C, the self-cleavage came to 0.34. With U7C A41G, the self-cleavage was found to be 0.322. Take U7A A23U: the self-cleavage is 0.322.

Consider U7A A23C, for which the self-cleavage worked out at 0.434. Then U7A A23G, with 0.308; and U7C C15G, with 0.667; and U7C C15A, with 0.737. To U7C C15U belongs 0.995. Then A6U C43G, with 0.342; and A6U C43U, with 0.368. With A6U C43A, the self-cleavage amounted to 0.326. For U7G A42C, the self-cleavage came to 0.271. Turning to U7G A42G, the self-cleavage was 0.33. U7G A42U: the self-cleavage stood at 0.326.

For U7A C38G, the self-cleavage was 0.431. On to U7A C38A, for which the self-cleavage is 0.49. With U7A C38U, the self-cleavage turned out to be 1.27. In the case of U7C C43G, the self-cleavage was found to be 0.346. Then U7C C43U, with 0.25. Then U7C C43A, with 0.309.

Take U7C U32G: the self-cleavage was determined as 0.626. On to U7C U32C, for which the self-cleavage was found to be 0.949. For U7C U32A, the self-cleavage was found to be 1.02. Then U7C C20U, with 0.492; and U7C C20G, with 0.306. With U7C C20A, the self-cleavage was 0.5. Regarding U7C A40G, the self-cleavage is 0.382. Regarding U7C A40U, the self-cleavage is 0.373. Turning to U7C A40C, the self-cleavage is 0.418. As to A6U U32C, the self-cleavage came to 0.988.

On to A6U U32G, for which the self-cleavage was determined as 0.559.

Consider A6U U32A, for which the self-cleavage is 0.605. On to U7A A26U, for which the self-cleavage amounted to 0.556. On to U7A A26G, for which the self-cleavage stood at 0.221.

For the variant U7A A26C, the self-cleavage stood at 0.311. As for U7C C29U, the self-cleavage turned out to be 0.992.

Turning to U7C C29G, the self-cleavage was 0.514. In the case of U7C C29A, the self-cleavage is 0.685.

On to U7C G31C, for which the self-cleavage came to 0.803. To U7C G31U belongs 1.1; to U7C G31A, 1.12. With U7G A37U, the self-cleavage was 0.683. With U7G A37G, the self-cleavage worked out at 0.928. As for U7G A37C, the self-cleavage was found to be 1.29. As to U7G C11U, the self-cleavage worked out at 1.12.

Consider U7G C11A, for which the self-cleavage was 1.6. As to U7G C11G, the self-cleavage is 1.52. To U7A U9G belongs 1.32. Turning to U7A U9A, the self-cleavage turned out to be 0.874. For the variant U7A U9C, the self-cleavage was 1.04. In the case of A6U G17C, the self-cleavage is 0.354. On to A6U G17A, for which the self-cleavage was determined as 0.401. Consider A6U G17U, for which the self-cleavage came to 0.465. To U7A C16A belongs 1.29; to U7A C16U, 1.17. As for U7A C16G, the self-cleavage stood at 0.851.

U7A C11G: the self-cleavage turned out to be 1.52. Regarding U7A C11U, the self-cleavage amounted to 1.4. To U7A C11A belongs 1.55. Take U7C G8C: the self-cleavage amounted to 0.961. In the case of U7C G8A, the self-cleavage worked out at 0.95.

As to U7C G8U, the self-cleavage was determined as 1.38.

A6U U9C: the self-cleavage was found to be 0.654. For the variant A6U U9G, the self-cleavage was 0.641. Then A6U U9A, with 0.617. For the variant U7G A40G, the self-cleavage was 0.291.

With U7G A40C, the self-cleavage was 0.396.

For the variant U7G A40U, the self-cleavage was 0.401. A6U U24G: the self-cleavage came to 0.642.

In the case of A6U U24A, the self-cleavage amounted to 0.494. With A6U U24C, the self-cleavage came out at 0.573. As for U7A U13C, the self-cleavage worked out at 1.43.

As to U7A U13A, the self-cleavage worked out at 1.42. For U7A U13G, the self-cleavage turned out to be 1.29. In the case of U7A A34C, the self-cleavage is 1.78.

Regarding U7A A34U, the self-cleavage amounted to 1.22. With U7A A34G, the self-cleavage turned out to be 1.07. To U7A G18U belongs 0.569; to U7A G18C, 0.365. For the variant U7A G18A, the self-cleavage came to 0.539. As to U7C U13G, the self-cleavage is 0.7. On to U7C U13C, for which the self-cleavage is 1.4. U7C U13A: the self-cleavage was found to be 1.22.

Consider U7C A44G, for which the self-cleavage turned out to be 1.13. As to U7C A44U, the self-cleavage was determined as 0.582. For the variant U7C A44C, the self-cleavage turned out to be 0.631. As to A6U G8U, the self-cleavage stood at 0.489. Regarding A6U G8C, the self-cleavage stood at 0.769. Regarding A6U G8A, the self-cleavage is 0.807.

U7G A44G: the self-cleavage worked out at 1.82.

In the case of U7G A44U, the self-cleavage turned out to be 0.422. U7G A44C: the self-cleavage is 0.411. As to U7C A23U, the self-cleavage was 0.339.

In the case of U7C A23C, the self-cleavage is 0.356. Then U7C A23G, with 0.454; and U7A U19A, with 0.377.

With U7A U19G, the self-cleavage was determined as 0.25. Turning to U7A U19C, the self-cleavage worked out at 0.402. To U7C A26C belongs 0.373; to U7C A26U, 0.48; to U7C A26G, 0.305.
